From patent US20220177587A1, “METHODS AND USES OF VARIANT CD80 FUSION PROTEINS AND RELATED CONSTRUCTS” (Alpine Immune Sciences, Inc., priority 2018, published 2022) come the findings set out here.

For assay [1], the target named is human PD-L1 (human) (UniProt Q9NZQ7). Briefly: flow cytometry, MFI on PD-L1 cells over MFI on CD28 cells. A general note: Flow cytometry measures light scatter and fluorescence of single cells or particles in a stream.
Target sequence in this assay (Q9NZQ7 19-290): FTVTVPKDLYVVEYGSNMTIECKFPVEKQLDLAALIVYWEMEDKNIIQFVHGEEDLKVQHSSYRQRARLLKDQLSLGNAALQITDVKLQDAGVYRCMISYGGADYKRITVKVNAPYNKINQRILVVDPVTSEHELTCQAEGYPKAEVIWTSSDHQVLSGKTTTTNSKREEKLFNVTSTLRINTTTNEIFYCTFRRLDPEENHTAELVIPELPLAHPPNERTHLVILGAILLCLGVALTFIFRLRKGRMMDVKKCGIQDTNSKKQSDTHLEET
The target of a further assay is human CTLA-4 (human) (UniProt P16410). Briefly: flow cytometry, CHO cells stably expressing CTLA4.
In assay [2] the target is CD28 (human) (UniProt P10747).
Assay [3] deals with human PD-L1 (human) (UniProt Q9NZQ7).
Target sequence in this assay (Q9NZQ7 19-290 limits assumed): as the sequence (Q9NZQ7 19-290) above
Assay [4] deals with CD28 (human) (UniProt P10747). Kind of assay: flow cytometry, Jurkat cells (CD28).
The target of assay [5] is human PD-L1 (human) (UniProt Q9NZQ7). Briefly: flow cytometry, CHO cells stably expressing PD-L1.
Target sequence in this assay (Q9NZQ7 19-290): as above
The target in assay [6] is CD28 (human) (UniProt P10747). This is another data set of the same source.
Assay [7] addresses human PD-L1 (human) (UniProt Q9NZQ7). The source holds these as a separate data set.
Target sequence in this assay (Q9NZQ7 19-290): as above
Assay [8] has as its target CD28 (human) (UniProt P10747). This is another data set of the same source.
Assay [9] has as its target human PD-L1 (human) (UniProt Q9NZQ7). The source holds these as a separate data set.
Target sequence in this assay (Q9NZQ7 19-290): as above

Chain of human CTLA-4 (human) (P16410 36-223): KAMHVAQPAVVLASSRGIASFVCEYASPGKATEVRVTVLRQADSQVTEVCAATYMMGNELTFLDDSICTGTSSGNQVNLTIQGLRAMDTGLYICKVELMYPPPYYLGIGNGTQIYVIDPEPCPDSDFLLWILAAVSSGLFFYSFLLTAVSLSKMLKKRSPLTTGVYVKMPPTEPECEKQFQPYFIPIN

B1: variant CD80 IgV-Fc H18Y/A26E/E35D/M47L (Fc fusion)
chain: VIHVTKEVKEVATLSCGYNVSVEELEQTRIYWQKDKKMVLTMMSGDLNIWPEYKNRTIFDITNNLSIVILALRPSDEGTYECVVLKYEKDAFKREHLAEVTLSVKAD
For B1, the Ratio of PDL1:CD28 in the assay with human PD-L1 (human) [1] came out at 30.7. The results for the Fold change to WT CD80 in the assay with human CTLA-4 (human), in the assay with CD28 (human) [4] and with human PD-L1 (human) [5] were 17.7 fold, 7.4 fold and 228 fold, respectively. The MFI at 33.3 nM with human CTLA-4 (human) was determined as 24000 MFI; in the assay with CD28 (human) [4], 324 MFI; in the assay with human PD-L1 (human) [5], 9950 MFI. Besides, the IL-2 luciferase reporter, fold increase over WT CD80-IgV-Fc at 5.0 nM with CD28 (human) [2] and with human PD-L1 (human) [3] was 3.1 fold throughout.

B2: CD80 E35D/L97R IgV-Fc (Fc fusion)
chain: VIHVTKEVKEVATLSCGHNVSVEELAQTRIYWQKDKKMVLTMMSGDMNIWPEYKNRTIFDITNNLSIVILALRPSDEGTYECVVLKYEKDAFKREHRAEVTLSVKAD
Take B2: the IL2-luciferase reporter (RLU), fold increase over WT CD80-IgV-Fc at 5.0 nM in the assay with CD28 (human) [6] and in the assay with human PD-L1 (human) [7] was 2.3 fold throughout.

B3: variant CD80 IgV-Fc H18Y/E35D/A71G/D90G (Fc fusion)
chain: VIHVTKEVKEVATLSCGYNVSVEELAQTRIYWQKDKKMVLTMMSGDMNIWPEYKNRTIFDITNNLSIVILGLRPSDEGTYECVVLKYEKGAFKREHLAEVTLSVKAD
Turning to B3, the Ratio of PDL1:CD28 with human PD-L1 (human) [1] amounted to 6.5. In addition, the Fold change to WT CD80 in the assay with human CTLA-4 (human) came to 19 fold; in the assay with CD28 (human) [4], 29.8 fold; with human PD-L1 (human) [5] it was 196 fold. For the same molecule, the MFI at 33.3 nM with human CTLA-4 (human) worked out at 25900 MFI; with CD28 (human) [4] it was 1310 MFI; with human PD-L1 (human) [5] it was 8520 MFI. Further, the IL-2 luciferase reporter, fold increase over WT CD80-IgV-Fc at 5.0 nM with CD28 (human) [2] and with human PD-L1 (human) [3] was 3.81 fold each time.

B4: CD80 H18Y/E35D/M47L/A71G/A91S IgV-Fc (Fc fusion)
chain: VIHVTKEVKEVATLSCGYNVSVEELAQTRIYWQKDKKMVLTMMSGDLNIWPEYKNRTIFDITNNLSIVILGLRPSDEGTYECVVLKYEKDSFKREHLAEVTLSVKAD
As for B4, the IL2-luciferase reporter (RLU), fold increase over WT CD80-IgV-Fc at 5.0 nM with CD28 (human) [6] and with human PD-L1 (human) [7] was 4.7 fold in each case.

B5: variant CD80 IgV-Fc E35D/M47L/V68M/D90G (Fc fusion)
chain: VIHVTKEVKEVATLSCGHNVSVEELAQTRIYWQKDKKMVLTMMSGDLNIWPEYKNRTIFDITNNLSIMILALRPSDEGTYECVVLKYEKGAFKREHLAEVTLSVKAD
As for B5, the Ratio of PDL1:CD28 in the assay with human PD-L1 (human) [1] was found to be 6.9. Also, the Fold change to WT CD80 with human CTLA-4 (human) was 20.3 fold; in the assay with CD28 (human) [4], 77.8 fold; in the assay with human PD-L1 (human) [5], 539 fold. Moreover, the figures for the MFI at 33.3 nM with human CTLA-4 (human), with CD28 (human) [4] and with human PD-L1 (human) [5] were 27600 MFI, 3410 MFI and 23500 MFI, respectively. Further, the IL-2 luciferase reporter, fold increase over WT CD80-IgV-Fc at 5.0 nM in the assay with CD28 (human) [2] and with human PD-L1 (human) [3] was 1.82 fold in each case.

B6: CD80 IgV-Fc T13R/Q33R/E35D/M38I/M47L/V68M/E95V/L97Q (Fc fusion)
chain: VIHVTKEVKEVARLSCGHNVSVEELAQTRIYWRKDKKIVLTMMSGDLNIWPEYKNRTIFDITNNLSIMILALRPSDEGTYECVVLKYEKDAFKRVHQAEVTLSVKAD
For B6, the RLU at 5.0 nM: Fold Increase over WT CD80-IgV-Fc in the assay with CD28 (human) [8] and with human PD-L1 (human) [9] was 2.5 fold in each case.

B7: CD80 IgV-Fc E35D/M47V/N48K/V68M/A71G/L85M (Fc fusion)
chain: VIHVTKEVKEVATLSCGHNVSVEELAQTRIYWQKDKKMVLTMMSGDVKIWPEYKNRTIFDITNNLSIMILGLRPSDEGTYECVVMKYEKDAFKREHLAEVTLSVKAD
As for B7, the RLU at 5.0 nM: Fold Increase over WT CD80-IgV-Fc with CD28 (human) [8] and in the assay with human PD-L1 (human) [9] was 3.6 fold in each case.

B8: CD80 E35D/M47V IgV-Fc (Fc fusion)
chain: VIHVTKEVKEVATLSCGHNVSVEELAQTRIYWQKDKKMVLTMMSGDVNIWPEYKNRTIFDITNNLSIVILALRPSDEGTYECVVLKYEKDAFKREHLAEVTLSVKAD
B8: the IL2-luciferase reporter (RLU), fold increase over WT CD80-IgV-Fc at 5.0 nM with CD28 (human) [6] and with human PD-L1 (human) [7] was 3.4 fold in each case.
